Results: patent US20190153459A1, “RECOMBINANT POLYNUCLEOTIDE INVOLVED IN LACTONE SYNTHESIS AND PROCESS FOR SYNTHESIS OF LACTONES THEREOF” (Council of Scientific & Industrial Research, priority 2016, published 2019)

Columns and labels:
[1] = molecular target: T1, MiEH2 (Mangifera indica, UniProt A0A1U9ZCB5); assay: MiEH2 activity assay and enzyme kinetics with epoxide substrates (HRMS); type: biochemical; details: for product formation by MiEH2 with substrate (HRMS extracted ion chromatogram): 200 μM substrate, pH 7.0, 30° C., FIG. 3; for Vmax: recombinant MiEH2, substrate kinetics
T1 sequence (A0A1U9ZCB5 1-318): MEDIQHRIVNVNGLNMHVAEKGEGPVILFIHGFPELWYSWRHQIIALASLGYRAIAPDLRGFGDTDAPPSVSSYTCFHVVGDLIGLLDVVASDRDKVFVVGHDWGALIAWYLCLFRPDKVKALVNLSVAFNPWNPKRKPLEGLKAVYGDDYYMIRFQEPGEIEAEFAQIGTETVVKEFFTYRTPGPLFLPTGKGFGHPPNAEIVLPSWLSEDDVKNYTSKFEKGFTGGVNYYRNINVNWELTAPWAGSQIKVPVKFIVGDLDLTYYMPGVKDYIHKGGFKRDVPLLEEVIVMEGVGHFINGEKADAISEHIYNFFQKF
Method: (§1) Similar activity assays were carried out with protein expressed from empty vector for confirmation of EH2 activity. Optimum pH was determined by calculating activity at varied range of pH in phosphate citrate buffer at 30° C., whereas temperature optima was determined by calculating MiEH2 activity in phosphate citrate buffer pH 7 at various temperatures. After incubation and catalytic activity of EH 2, products were extracted in chloroform:methanol (2:1); completely dried in vacuum evaporator and reconstituted in the methanol. HRMS analysis carried out by accurate mass (molecular ion) identification. […] Extracted compounds from CSO and TSO assay reactions were separated by water (A):methanol (B) solvent gradient, 0-1 min 80% (A)/20% (B); 1-2 min 60% (A)/40% (B); 2-4 min 40% (A)/60% (B); 4-11 min 20% (A)/80% (B); 11-16 min 0% (A)/100% (B), hold for 2 min and again back to 80% (A)/20% (B) in 3 min with 2 min hold at flow rate 500 μl min^−1. […] Quantitative analysis of CSO and TSO assay products was done by plotting standard graph of product standards. Full scans for both programs were acquired on positive ion mode with AGC target value of 1E6, resolution of 70,000 at scan range 100-500 m/z, and maximum ion injection time (IT) of 250 ms.

[2] = tested on: ethylene treated mango fruits; assay: Transient over expression of SEQ ID No. 1 (MiEH2) in mango fruits via agroinfiltration, lactone content by GC-FID; type: in vivo, Mangifera indica
Method: The full length sequence of MiEH2, i.e. SEQ ID No. 1 was cloned in a pBI121 plant expression vector between CaMV 35S promoter and GusA gene. Terminal primers were designed (Table 1A) to clone genes at BamHI restriction site. Resulted correct oriented construct pBI121+SEQ ID No. 1 and pBI121 empty vector as control were transformed in the Agrobacterium GV3101 strain for transient expression studies. Separate Agrobacterium cultures (5 mL) were initiated from individual colonies in YEB medium having appropriate antibiotics and incubated overnight at 28° C. This culture was transferred to 50 mL induction medium comprising 0.5% beef extract, 0.1% yeast extract, 0.5% peptone, 0.5% sucrose, 2 mM MgSO4, […] acetosyringone, 10 mM MES, pH 5.6, having appropriate antibiotics, and again grown overnight. Cultures were recovered by centrifugation on the next day, resuspended in infiltration medium (10 mM MgCl2, 10 mM MES, […] acetosyringone, pH 5.6) till optical density reached 1.0. This suspension was again incubated at 28° C. with gentle agitation for 2 hrs.
Over expression studies for EH2 were carried out by Agrobacterium mediated infiltration in ethylene treated mango fruits at 3DAH stage by using hypodermic syringe. Equal volumes of said constructs i.e. pBI121+MiEH2 and pBI121 empty vector construct were used for infiltration in two different halves of same mango fruit separated by fruit stone. […] Thus control (empty vector) and test over expressions were carried out in same fruit to avoid error in lactone content analysis. Five distinct mango fruits were used for overexpression study of MiEH2. Infiltrated fruits were kept at 25° C. for 2 days in 12 hr dark and 12 hr light conditions, after 2 days; part from each fruit halves was checked by Gus staining (Kapila et al. 1997; Spolaore et al. 2001) to confirm expression of MiEH2 under 35S promoter along with GusA, remaining part of fruit pulp stored in −80° C. until used for lactone analysis by gas chromatography. […] Lactones were analysed from control and test region of fruits. A total of 8 lactones viz. γ-butyrolactone, δ-valerolactone, γ-hexalactone, δ-hexalactone, γ-octalactone, γ-octalactone, γ-decalactone and δ-decalactone were detected from all tissues in GC-MS analysis.
GC-MSD and GC-FID analysis for lactones was carried out using a 7890B GC system Agilent Technologies coupled with Agilent 5977A MSD (Agilent technologies, CA, USA). […] To understand effect of gene over expression by transient expression on lactone biosynthesis, qualitative and quantitative analysis for lactones alone was carried out in the present study. […] Absolute quantification was done using internal standard by normalizing concentrations of all the lactones with that of known concentration of nonyl acetate.

[3] = substrate: c1ccc([C@H]2O[C@H]2c2ccccc2)cc1; assay: MiEH2 activity assay and enzyme kinetics with epoxide substrates (HRMS); type: biochemical, Mangifera indica; details: other: recombinant MiEH2, substrate kinetics; pH 7.0
Method: as §1

[4] = substrate: c1ccc([C@H]2O[C@@H]2c2ccccc2)cc1; assay: as above; type: biochemical, Mangifera indica; details: other: recombinant MiEH2, substrate kinetics; pH 7.0
Method: as §1

[5] = molecular target: T1, MiEH2; assay: Optimum pH and temperature of MiEH2 activity; type: biochemical
Method: Similar activity assays were carried out with protein expressed from empty vector for confirmation of EH2 activity. Optimum pH was determined by calculating activity at varied range of pH in phosphate citrate buffer at 30° C., whereas temperature optima was determined by calculating MiEH2 activity in phosphate citrate buffer pH 7 at various temperatures. After incubation and catalytic activity of EH 2, products were extracted in chloroform:methanol (2:1); completely dried in vacuum evaporator and reconstituted in the methanol. HRMS analysis carried out by accurate mass (molecular ion) identification. Identified products from assay reaction were confirmed with mass and retention time indices of authentic standards R,R hydrobenzoin and meso hydro benzoin. Extracted compounds from CSO and TSO assay reactions were separated by water (A):methanol (B) solvent gradient, 0-1 min 80% (A)/20% (B); 1-2 min 60% (A)/40% (B); 2-4 min 40% (A)/60% (B); 4-11 min 20% (A)/80% (B); 11-16 min 0% (A)/100% (B), hold for 2 min and again back to 80% (A)/20% (B) in 3 min with 2 min hold at flow rate 500 μl min^−1. […] Quantitative analysis of CSO and TSO assay products was done by plotting standard graph of product standards. Full scans for both programs were acquired on positive ion mode with AGC target value of 1E6, resolution of 70,000 at scan range 100-500 m/z, and maximum ion injection time (IT) of 250 ms.

[6] = pBI121+SEQ ID No. 1 vs empty pBI121 vector in same fruit, 2 days post infiltration

Molecule: c1ccc([C@H]2O[C@H]2c2ccccc2)cc1 [CSO, cis-stilbene oxide]
- product formation by MiEH2 with substrate (HRMS extracted ion chromatogram) [1]: product formation
- Vmax [1]: CSO- 26.5252 ± 4.81 μM min^−1mg^−1

Molecule: c1ccc([C@H]2O[C@@H]2c2ccccc2)cc1 (relative stereo) [TSO, trans-stilbene oxide]
- product formation by MiEH2 with substrate (HRMS extracted ion chromatogram) [1]: product formation
- Vmax [1]: TSO- 1055.55 ± 55.55 μM min^−1mg^−1

B1: SEQ ID No. 1: 957 bp polynucleotide encoding epoxide hydrolase 2, cloned in pBI121 plant expression vector, agroinfiltrated in mango (nucleic acid)
DNA: ATGGAAGATATACAGCACAGAATTGTGAATGTCAATGGCTTAAACATGCACGTGGCAGAGAAAGGCGAAGGTCCAGTCATTCTCTTCATTCACGGTTTTCCCGAACTGTGGTACTCCTGGCGGCATCAGATCATCGCCTTGGCTTCCCTCGGCTACCGAGCCATTGCTCCGGATCTACGTGGCTTCGGTGATACTGACGCGCCGCCGTCTGTCTCGAGTTACACGTGTTTCCACGTGGTGGGGGACCTCATTGGACTTCTCGACGTCGTTGCCTCTGATCGGGATAAGGTTTTCGTGGTGGGCCATGATTGGGGTGCTCTTATTGCTTGGTACTTGTGCTTGTTTAGACCGGATAAGGTCAAAGCTTTGGTCAACTTGAGTGTTGCGTTTAATCCCTGGAACCCCAAGAGGAAGCCACTTGAGGGTTTGAAAGCTGTTTATGGTGACGATTATTACATGATCAGATTTCAGGAGCCTGGTGAGATAGAAGCTGAGTTTGCCCAGATTGGTACTGAGACAGTTGTCAAGGAATTCTTTACATACAGGACACCTGGTCCTCTTTTTCTCCCTACAGGTAAAGGATTTGGACATCCCCCAAATGCTGAAATTGTCTTACCCTCTTGGCTATCAGAGGATGATGTTAAAAACTACACCAGCAAATTTGAGAAAGGCTTTACAGGAGGAGTGAACTATTACCGTAATATAAACGTGAACTGGGAACTTACAGCTCCTTGGGCCGGGAGTCAAATAAAGGTTCCTGTTAAGTTCATCGTGGGTGACCTGGACCTGACATATTATATGCCAGGAGTCAAGGATTACATACACAAAGGTGGGTTCAAGCGAGATGTGCCATTATTGGAAGAAGTGATTGTAATGGAAGGTGTAGGTCACTTCATTAATGGAGAAAAGGCTGATGCAATCAGTGAGCACATATACAACTTTTTTCAGAAGTTCTGA
modifications: cDNA
notes: 957 bp polynucleotide encoding epoxide hydrolase 2, cloned in pBI121 plant expression vector, agroinfiltrated in mango
- lactone content on transient over expression ([2]; Alphonso mango): significant increase
- increase in γ-hexalactone content compared to control tissue [2, 6]: 1.96 fold
- increase in δ-hexalactone content compared to control tissue [2, 6]: 1.98 fold
- increase in δ-valerolactone content compared to control tissue [2, 6]: 1.46 fold

B2: MiEH2 (Mangifera indica) (protein)
chain: MEDIQHRIVNVNGLNMHVAEKGEGPVILFIHGFPELWYSWRHQIIALASLGYRAIAPDLRGFGDTDAPPSVSSYTCFHVVGDLIGLLDVVASDRDKVFVVGHDWGALIAWYLCLFRPDKVKALVNLSVAFNPWNPKRKPLEGLKAVYGDDYYMIRFQEPGEIEAEFAQIGTETVVKEFFTYRTPGPLFLPTGKGFGHPPNAEIVLPSWLSEDDVKNYTSKFEKGFTGGVNYYRNINVNWELTAPWAGSQIKVPVKFIVGDLDLTYYMPGVKDYIHKGGFKRDVPLLEEVIVMEGVGHFINGEKADAISEHIYNFFQKF
- Km [3]: CSO- 0.165 ± 0.044 mM
- Km [4]: TSO- 0.113 ± 0.003 mM

B3: MiEH2: recombinant epoxide hydrolase 2 polypeptide of Mangifera indica, 318 amino acids, 6×His tagged (protein, listed as Mangifera indica)
chain: MEDIQHRIVNVNGLNMHVAEKGEGPVILFIHGFPELWYSWRHQIIALASLGYRAIAPDLRGFGDTDAPPSVSSYTCFHVVGDLIGLLDVVASDRDKVFVVGHDWGALIAWYLCLFRPDKVKALVNLSVAFNPWNPKRKPLEGLKAVYGDDYYMIRFQEPGEIEAEFAQIGTETVVKEFFTYRTPGPLFLPTGKGFGHPPNAEIVLPSWLSEDDVKNYTSKFEKGFTGGVNYYRNINVNWELTAPWAGSQIKVPVKFIVGDLDLTYYMPGVKDYIHKGGFKRDVPLLEEVIVMEGVGHFINGEKADAISEHIYNFFQKF
modifications: 6xHis tag
notes: recombinant epoxide hydrolase 2 polypeptide of Mangifera indica, 318 amino acids, 6×His tagged
- Optimum temperature ([5]; phosphate citrate buffer pH 7, various temperatures): 45 °C
- Optimum pH ([5]; phosphate citrate buffer, 30° C., varied pH): 8
